From patent US6096520A, “Brain glycogen phosphorylase cancer antigen” (Ludwig Institute for Cancer Research, priority 1998, dated 2000)

B1: SEQ ID NO:3: fragment of brain glycogen phosphorylase nucleic acid ending at position 140 (nucleic acid)
DNA: ATGGGCGAACCGCTGACGGACAGCGAGAAGCGGAAGCAGATCAGCGTGCGCGGCCTGGCGGGGCTAGGCGACGTGGCCGAG
modifications: chemistry not fully specified
B2: SEQ ID NO:2: fragment of brain glycogen phosphorylase nucleic acid ending at position 161 (nucleic acid)
DNA: ATGGGCGAACCGCTGACGGACAGCGAGAAGCGGAAGCAGATCAGCGTGCGCGGCCTGGCGGGGCTAGGCGACGTGGCCGAGGTGCGGAAGAGCTTCAACCGG
modifications: chemistry not fully specified
B3: SEQ ID NO:1: shortest exonuclease III fragment of brain glycogen phosphorylase nucleic acid, ending 100 bp after the start codon (nucleic acid)
DNA: ATGGGCGAACCGCTGACGGACAGCGAGAAGCGGAAGCAGATCAGCGTGCGCGGCCTGGCGGGGCTAGGCGACGTGGCCGAGGTGCGGAAGAGCTTCAACCGGCACTTGCA
modifications: chemistry not fully specified
notes: shortest exonuclease III fragment of brain glycogen phosphorylase nucleic acid, ending 100 bp after the start codon

Each molecule was assayed on antigen recognized by CTL 246/76 (assay: TNF release from CTL 246/76 provoked by HOB cells transfected with cDNA fragment and HLA-A2). Conditions: fragment cotransfected with HLA-A2 into HOB cells.
Assay type: cell-based, human
Protocol: The transfection of HOB cells was made in duplicate wells. Briefly, samples of HOB cells were seeded, at 15,000 cells/well into tissue culture flat bottom microwells, in DMEM supplemented with 10% fetal calf serum. The cells were incubated overnight at 37° C., medium was removed and then replaced by 100 μl/well total volume of DMEM medium containing 20% Nu-Serum (Collaborative Research, Bedford, Mass.), 300 μg/ml DEAE-dextran, and 200 μM chloroquine, plus 100 ng of the LB373-MEL cDNA library cloned in pcDNAI/Amp and 50 ng of HLA-A2 cloned in pcDNAI/Amp. Following four hours of incubation at 37° C., the medium was removed, and replaced by 50 μl of PBS containing 10% dimethyl sulfoxide (DMSO). This medium was removed after two minutes and replaced by 200 μl of DMEM supplemented with 10% FCS.
Following this change in medium, HOB cells were incubated for 48 hours at 37° C. The transfectants then were screened with CTL 246/76. After first removing the medium, 2000 CTL 246/76 cells were added to each well in 100 μl of medium containing 25 U/ml IL-2. The amount of TNF present in the supernatant was then measured by testing its cytotoxicity for WEHI 164.13 cells. Most pools gave a TNF concentration below 5 pg/ml. cDNAs from pools which gave higher concentrations in both of the duplicate wells were cloned in bacteria. Their plasmid DNA was extracted and transfected into HOB cells with HLA-A2. The transfectants were screened with CTL 246/76. One cDNA clone gave a high TNF production by CTL 246/76. The cDNA was sequenced, compared with DNA sequence databases and determined to encode brain glycogen phosphorylase.
Fragments of the brain glycogen phosphorylase cDNA were prepared by exonuclease III digestion from the 3' end of the cDNA according to art standard procedures, were cloned into an expression vector and transfected into HOB cells with HLA-A2 as described above. As a positive control, the brain glycogen phosphorylase cDNA was cotransfected with HLA-A2 into HOB cells. These transfectants were used to provoke release of TNF from CTL 246/76 cells.
Shorter fragments were generated by PCR. […]

Molecule | confers expression of the antigen recognized by CTL 246/76
B1 | did not confer expression of the antigen
B2 | did confer expression of the antigen
B3 | able to confer expression of the antigen
